For assay [1], the target named is human C-peptide (human). Put plainly: ELISA on immobilized C-peptide; labeled antibody 0.0 ug/ml (blank), free C-peptide 10 ug/ml. A general note: In an ELISA, binding on a coated surface is turned into a signal by an enzyme label.
The target of assay [2] is human proinsulin (human) (UniProt P01308). Put plainly: sandwich immunoassay, one-step, against C-peptide calibration; proinsulin 200 ng/ml; CPT-3-F11 on particles, labeled antibody PEP-001.
Assay [3] addresses human C-peptide (human). Put plainly: ELISA on immobilized C-peptide; labeled antibody 10 ug/ml, free C-peptide 10 ug/ml.
In assay [4] the target is human C-peptide (human). Put plainly: ELISA on immobilized C-peptide; labeled antibody 0.1 ug/ml, free C-peptide 0.1 ug/ml.
Assay [5] has as its target human C-peptide (human). Put plainly: ELISA on immobilized C-peptide; labeled antibody 0.1 ug/ml, free C-peptide 0 ug/ml (reference).
The target in assay [6] is modified C-peptide (human C-peptide having Arg-Arg bound to its N-terminal and Lys-Arg bound to its C-terminal) (human). As to the kind of experiment: sandwich immunoassay, one-step, against C-peptide calibration; modified C-peptide 5 ng/ml; CPT-3F-11 on particles, labeled antibody 9101.
Sequence of modified C-peptide (human C-peptide having Arg-Arg bound to its N-terminal and Lys-Arg bound to its C-terminal) (human) (peptide, as listed by the source): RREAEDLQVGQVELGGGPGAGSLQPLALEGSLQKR
Assay [7] addresses human C-peptide (human). Put plainly: ELISA on immobilized C-peptide; labeled antibody 0.0 ug/ml (blank), free C-peptide 0 ug/ml.
Assay [8] concerns the target human C-peptide (human). Put plainly: ELISA on immobilized C-peptide; labeled antibody 10 ug/ml, free C-peptide 0.1 ug/ml.
Assay [9] has as its target human C-peptide (human). As to the kind of experiment: sandwich immunoassay, one-step; CPT-3F-11 on particles, labeled antibody 9101.
The target of assay [10] is human C-peptide (human). Put plainly: ELISA on immobilized C-peptide; labeled antibody 1.0 ug/ml, free C-peptide 0 ug/ml.
Assay [11] addresses human C-peptide (human). Put plainly: ELISA on immobilized C-peptide; labeled antibody 0.0 ug/ml (blank), free C-peptide 1.0 ug/ml.
Assay [12] has as its target human proinsulin (human) (UniProt P01308). Put plainly: sandwich immunoassay, two-step, against C-peptide calibration; proinsulin 200 ng/ml; CPT-3-F11 on particles, labeled antibody PEP-001.

Sequence of human C-peptide (human) (peptide, as listed by the source): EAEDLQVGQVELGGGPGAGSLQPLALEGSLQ
Sequence of UniProt P01308 (P01308 25-110): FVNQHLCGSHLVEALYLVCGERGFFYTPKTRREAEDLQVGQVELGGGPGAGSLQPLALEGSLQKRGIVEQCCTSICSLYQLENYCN

For “anti-human C-peptide monoclonal antibody CPT-3-F11 (Dako)”, the Absorbance (absorbance at 405 nm) with human C-peptide (human) [1] was found to be 0; in the assay with human C-peptide (human) [3], 0.008; in the assay with human C-peptide (human) [4], 0.179; in the assay with human C-peptide (human) [7], 0; in the assay with human C-peptide (human) [8], 0.336; with human C-peptide (human) [10] it was 1.94. In the assay with human C-peptide (human) [11], the Absorbance (absorbance at 405 nm) was determined as 0. Further, the Binding Ratio in the assay with human C-peptide (human) [1] came out at 0%; in the assay with human C-peptide (human) [3], 0.1%; with human C-peptide (human) [4], 11.8%; with human C-peptide (human) [5] it was 100%; with human C-peptide (human) [7] it was 0%; with human C-peptide (human) [8], 15.5%. In addition, the Binding Ratio with human C-peptide (human) [11] worked out at 0%. In addition, the Cross-reactivity (%) to Human Proinsulin with human proinsulin (human) [2] and in the assay with human proinsulin (human) [12] was greater than 30% each time. For the same substance, the Cross-reactivity (%) to Modified C-peptide in assay [6] amounted to 0.5%. This substance displayed a 2S/N value with human C-peptide (human) [9] of 0.008 ng/mL.

For the origin of these results see US6534281.
